In US8217161B2, “Methods of inhibiting multiple cytochrome P450 genes with siRNA” (Clemson University Research Foundation, priority 2008, dated 2012):
Like-named read-outs stand apart in the source and are kept apart here.

B1: Cyp2b-KD2: lentiviral shRNA construct targeting mouse Cyp2b subfamily; siRNA sequence AAGAACACTGAGGTGTACCCC (nucleic acid)
DNA: GGATCCCAAGAACACTGAGGTGTACCCCTTGATATCCGGGGGTACACCTCAGTGTTCTTTTTTTTCCAACTCGAG
B2: Cyp2b-KD3: lentiviral shRNA construct targeting mouse Cyp2b subfamily; siRNA sequence CAGGAAAGCGCATTTGTCTTG (nucleic acid)
DNA: GGATCCCGCAAGACAAATGCGCTTTCCTGTTGATATCCGCAGGAAAGCGCATTTGTCTTGTTTTTTCCAACTCGAG
B3: scrambled-shRNA: control shRNA construct with scrambled sequence that does not recognize any murine mRNAs (nucleic acid)
chain: GGATCCCGACGATTCGAGGCGCAGTGATTTGATATCCGATCACTGCTCCTCGAATCGTCTTTTTTCCAACTCGAG

Columns and labels:
[1] = test system: Cyp2b-knockdown mice; assay: Chlorpyrifos toxicity in Cyp2b-knockdown mice; format: in vivo, mouse; conditions: 10 mg/kg ip
Method: Chlorpyrifos: Similar to parathion, chlorpyrifos is an organophosphate insecticide that activates CAR, but chlorpyrifos is more toxic to wild-type mice. Initial toxicity is outwardly shown by mucous discharge from the eyes and later by reduced activity or complete lethargy, similar to other acetylcholinesterase inhibitors. Mice are injected ip with 10 mg/kg of chlorpyrifos and watched for behavioral changes. Mice showing toxicity are immediately euthanized to avoid unnecessary distress or pain. Statistical differences are determined using a Fisher's 2×2 test (StatView®, SAS Institute, Cary, N.C.).

[2] = test system: Cyp2b-knockdown mice; conditions: mouse, in vivo
[3] = test system: Cyp2b-knockdown mice; conditions: 75 mg/kg ip, observed 30 minutes
Method: Strychnine: Strychnine is a Cyp2b-inducer (Oguri et al., Arch. Biochem. Biophys. 287:105 (1991); Yamada et al., Arch. Biochem. Biophys. 299:248 (1992)) and therefore a potential CAR agonist. Strychnine is administered ip (75 mg/kg in saline) and observed for 30 minutes. Latency time to the first convulsions and number of animals showing convulsion is noted. […] Statistical analysis is performed using Fisher's 2×2 tests.

[4] = test system: Cyp2b10 mRNA; assay: Q-PCR of Cyp2b10 mRNA in TCPOBOP-induced primary mouse hepatocytes transduced with lentiviral shRNA constructs; format: cell-based; conditions: for reduction of Cyp2b10 expression: MOI 20 and/or 5, vs scrambled lentivirus
Method: (§1) Q-PCR is performed to determine the efficacy of shRNA knockdown of the Cyp2b gene subfamily. Total RNA is isolated using a modified guanidinium thiocyanate-phenol-chloroform extraction protocol with TRI-reagent (Sigma, St. Louis, Mo.) according to the manufacturer's specifications followed by DNAse (Promega Corporation, Madison Wis.) treatment to remove residual genomic DNA. RNA is quantified spectrophotometrically and stored at −80° C. Reverse transcription is performed to create cDNA using MMLV-RT, a dNTP mixture, and random decamers. cDNA is stored at −20° C. Q-PCR is performed as described previously (Roling et al., Mar. Environ. Res. 57:377 (2004)). Briefly, to generate a standard curve and determine PCR efficiency, cDNA is combined and a 2×, 1:1, 1:10, 1:100, and 1:1000 dilution made. […] Amplifications are performed in triplicate using a 96-well MyiQ™ Real-Time PCR Detection System (Bio-Rad) with 0.25× SybrGreen as the fluorescent double strand-intercalating agent to quantify gene expression. The advantage of Q-PCR is having enough material to investigate a decrease of several Cyp2b isoforms as well as confirm that other P450 subfamilies are unaffected (Cyp3a, 2c).
(§2) Q-PCR results are normalized to the expression of the two housekeeping genes, β-Actin and 18S rRNA. A minimum of forty cycles is run on all real time samples to ensure a log based growth curve. Quantification is done by taking the efficiency curve of the Q-PCR reaction to the power of the threshold cycle (Ct). Samples are normalized to reference genes (β-actin and 18S rRNA) quantified for each sample. The formula for calculating normalized gene expression is NE={Eref}^Ct-ref/{Etarget}^Ct-target where NE is normalized gene expression, E is the efficiency of amplification for a particular gene, Ct is the threshold cycle, ref is the housekeeping gene (β-actin and 18S rRNA), and target is the gene of interest (Muller et al., Biotechniques 32:1372 (2002)).
(§3) The efficacy of the Cyp2b-KD2 and Cyp2b-KD3 lentiviral constructs to repress the expression of the Cyp2b subfamily members, Cyp2b9 and Cyp2b10 was tested using primary mouse hepatocytes. Primary mouse hepatocytes were plated in 6-well plates, treated with the CAR activator TCPOBOP to induce Cyp2b subfamily members (especially Cyp2b10) and then infected with either scrambled, Cyp2b-KD2 or Cyp2b-KD3 at a multiplicity of infection (MOI) of 20 and/or 5. The percentage of cells infected based on the presence of green fluorescence using fluorescent microscopy was approximately 65-80+% in KD2 transduced cells at a MOI of 5 and a about 55-70% in KD3 transduced cells at a MOI of 5.

[5] = test system: primary mouse hepatocytes; assay: Percentage of cells infected, by green fluorescence microscopy; format: cell-based; conditions: MOI of 5
Method: as §3

[6] = test system: Cyp2b9 mRNA; assay: Q-PCR of Cyp2b9 mRNA in TCPOBOP-induced primary mouse hepatocytes transduced with lentiviral shRNA constructs; format: cell-based
Method: as §1, §2, §3

[7] = TCPOBOP-treated primary mouse hepatocytes

| Molecule | Cyp2b10 expression relative to cells treated with the scrambled shRNA (in words) [4] | reduction of Cyp2b10 expression [4, 7] | percentage of cells infected based on green fluorescence [5] | Cyp2b9 expression relative to cells treated with the scrambled shRNA (in words) [6] | other results |
| --- | --- | --- | --- | --- | --- |
| CCOP(=S)(OCC)Oc1nc(Cl)c(Cl)cc1Cl [chlorpyrifos] |  |  |  |  | sensitivity as compared to wild-type mice [1]: decreased sensitivity |
| CC(=O)Nc1ccc(O)cc1 [acetaminophen] |  |  |  |  | toxicity in TCPOBOP-treated mice [2]: greatest amount of toxicity |
| O=C1C[C@@H]2OCC=C3CN4CC[C@]56c7ccccc7N1[C@H]5[C@H]2[C@H]3C[C@H]46 [strychnine] |  |  |  |  | protection from convulsions [3]: protection |
| B1 | reduced | 75-98% | 65-80% | reduced | reduction of Cyp2b9 expression ([6]; TCPOBOP-treated primary mouse hepatocytes, MOI 20 and/or 5, vs scrambled lentivirus): 75-98% |
| B2 | only KD2 reduced | 50% | 55-70% | not reduced | Cyp2b9 expression relative to cells treated with the scrambled shRNA (in words) ([6]; listed as KD3): reduced |
| B3 |  |  |  |  | Cyp2b10 expression relative to uninfected cells (in words) [4, 7]: did not reduce; Cyp2b9 expression relative to uninfected cells (in words) [6, 7]: did not reduce |
